Experimental data taken from patent publication US20140328819.

T1: soluble tissue factor (sTF), P13726
T1 chain: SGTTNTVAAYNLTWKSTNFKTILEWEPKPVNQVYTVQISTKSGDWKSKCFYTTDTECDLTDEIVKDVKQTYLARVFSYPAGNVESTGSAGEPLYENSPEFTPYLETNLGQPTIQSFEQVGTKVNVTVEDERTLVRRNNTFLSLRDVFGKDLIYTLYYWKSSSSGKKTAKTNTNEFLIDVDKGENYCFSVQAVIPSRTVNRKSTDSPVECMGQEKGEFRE

B1: FVIIa-AE288 (activated FVII-AE288, AC398) (protein)
chain: AVFVTQEEAHGVLHRRRRANAFLEELRPGSLERECKEEQCSFEEAREIFKDAERTKLFWISYSDGDQCASSPCQNGGSCKDQLQSYICFCLPAFEGRNCETHKDDQLICVNENGGCEQYCSDHTGTKRSCRCHEGYSLLADGVSCTPTVEYPCGKIPILEKRNASKPQGRIVGGKVCPKGECPWQVLLLVNGAQLCGGTLINTIWVVSAAHCFDKIKNWRNLIAVLGEHDLSEHDGDEQSRRVAQVIIPSTYVPGTTNHDIALLRLHQPVVLTDHVVPLCLPERTFSERTLAFVRFSLVSGWGQLLDRGATALELMVLNVPRLMTQDCLQQSRKVGDSPNITEYMFCAGYSDGSKDSCKGDSGGPHATHYRGTWYLTGIVSWGQGCATVGHFGVYTRVSQYIEWLQKLMRSEPRPGVLLRAPFPGSPGTSESATPESGPGSEPATSGSETPGTSESATPESGPGSEPATSGSETPGTSESATPESGPGTSTEPSEGSAPGSPAGSPTSTEEGTSESATPESGPGSEPATSGSETPGTSESATPESGPGSPAGSPTSTEEGSPAGSPTSTEEGTSTEPSEGSAPGTSESATPESGPGTSESATPESGPGTSESATPESGPGSEPATSGSETPGSEPATSGSETPGSPAGSPTSTEEGTSTEPSEGSAPGTSTEPSEGSAPGSEPATSGSETPGTSESATPESGPGTSTEPSEGSAPGSSS

How the values were obtained:
[1] = system: FIX/cFXI1/XTEN (pCW0735), FIX-KLTRAET-XTEN_AE864
[2] = system: FIX/cFXI2/XTEN (pCW0736), FIX-DFTRVVG-XTEN_AE864
[3] = system: FIX/cFXI3/XTEN (pCW0737), FIX-/FXI/-XTEN_AE864
[4] = molecular target: T1, soluble tissue factor (sTF), P13726

Molecule	Concentration by Activity (ng/ml), aPTT based factor assay [1]	Fraction Active (activity / ELISA) [1]	clotting activity (aPTT based factor assay), fold enhancement by the FXI cleavage site [1]	Concentration by Activity (ng/ml), aPTT based factor assay [2]	Fraction Active (activity / ELISA) [2]	clotting activity (aPTT based factor assay), fold enhancement by the FXI cleavage site [2]	Concentration by Activity (ng/ml), aPTT based factor assay [3]	Fraction Active (activity / ELISA) [3]	clotting activity (aPTT based factor assay), fold enhancement by the FXI cleavage site [3]	soluble tissue factor (sTF) induced clotting in FVII null plasma (Stago STA-Clot FVIIa activity assay kit) [4]
FXI protease (FXIa) of the aPTT assay plasma	7 ng/mL	30%	In all three cases the presence of a FXI cleavage site enhanced the clotting activity by greater than 30-fold	9 ng/mL	34%	In all three cases the presence of a FXI cleavage site enhanced the clotting activity by greater than 30-fold	11 ng/mL	40%	In all three cases the presence of a FXI cleavage site enhanced the clotting activity by greater than 30-fold	
B1										an activity equivalent to 112 U/ml of FVIIa activity
